Self-aminoacylation data for 25 sequences are collected here from the supplement of paper PMC9233669.

Fewer inactive variants are shown than the library holds.

In one series the test system is biotinyl-Val-oxazolone. The series can be described thus: self-aminoacylation, catalytic enhancement (BVO) (fold over background); higher = more active; k-Seq, kA / k0A0; sequences stand for … in GGGAAUGGAUCCACAUCUACGAAUUC…UUCACUGCAGACUUGACGAAGCUG
An outline of the steps:
(§1)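 Each biotinyl-aminoacyl-oxazolone, at 2–1250 μM, was incubated with mutagenized RNA pools (0.43 μM) carrying a 21-nt variable region. The 50 μL reactions contained HEPES/NaCl/KCl/MgCl2/CaCl2 buffer with 5% acetonitrile at pH 6.9–7.0 and ran for 90 minutes at room temperature. After streptavidin capture, RNA was measured by qPCR in triplicate and by Illumina sequencing, and catalytic enhancement was calculated as median kA over the uncatalyzed rate from a pseudo-first-order fit of per-sequence fraction reacted.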

The test system of another series is biotinyl-Trp-oxazolone. The series can be described thus: self-aminoacylation, catalytic enhancement (BWO) (fold over background); higher = more active; k-Seq, kA / k0A0; sequences stand for … in GGGAAUGGAUCCACAUCUACGAAUUC…UUCACUGCAGACUUGACGAAGCUG
The procedure, abridged:
as §1

The next series relates to biotinyl-Phe-oxazolone. The series can be described thus: self-aminoacylation, catalytic enhancement (BFO) (fold over background); higher = more active; k-Seq, kA / k0A0; sequences stand for … in GGGAAUGGAUCCACAUCUACGAAUUC…UUCACUGCAGACUUGACGAAGCUG
The procedure, abridged: as §1

The next series has as its system biotinyl-Met-oxazolone. The series can be described thus: self-aminoacylation, catalytic enhancement (BMO) (fold over background); higher = more active; k-Seq, kA / k0A0; sequences stand for … in GGGAAUGGAUCCACAUCUACGAAUUC…UUCACUGCAGACUUGACGAAGCUG
An outline of the steps: as §1

The subject of the next series is biotinyl-Leu-oxazolone. Put plainly: self-aminoacylation, catalytic enhancement (BLO) (fold over background); higher = more active; k-Seq, kA / k0A0; sequences stand for … in GGGAAUGGAUCCACAUCUACGAAUUC…UUCACUGCAGACUUGACGAAGCUG
The procedure, abridged:
as §1

The next series relates to biotinyl-Ile-oxazolone. Put plainly: self-aminoacylation, catalytic enhancement (BIO) (fold over background); higher = more active; k-Seq, kA / k0A0; sequences stand for … in GGGAAUGGAUCCACAUCUACGAAUUC…UUCACUGCAGACUUGACGAAGCUG
The procedure, abridged: as §1

As to “AUUCCCCUAGGUCAUCGGGUC [Fam2.2 aminoacylation ribozyme variant]”, the self-aminoacylation in the series on biotinyl-Val-oxazolone was determined as 5.52; in the series on biotinyl-Trp-oxazolone, 4; with biotinyl-Phe-oxazolone, 22.8; with biotinyl-Met-oxazolone, 4.08; in the series with biotinyl-Leu-oxazolone, 5.52; in the series with biotinyl-Ile-oxazolone, 4.5.
As for “AUUCCCCUAGGUCAUGGGGUG [Fam2.2 aminoacylation ribozyme variant]”, the self-aminoacylation with biotinyl-Val-oxazolone amounted to 11.1; with biotinyl-Trp-oxazolone, 15.8; with biotinyl-Phe-oxazolone, 167; with biotinyl-Met-oxazolone, 19; in the series with biotinyl-Leu-oxazolone it was 24.7; in the series on biotinyl-Ile-oxazolone it was 11.3.
In the case of “AUUCCCCUAGGUCCUCGGGUG [Fam2.2 aminoacylation ribozyme variant]”, the self-aminoacylation in the series on biotinyl-Val-oxazolone came to 17.1; in the series on biotinyl-Trp-oxazolone it was 24.6; with biotinyl-Phe-oxazolone, 241; in the series on biotinyl-Met-oxazolone it was 26.9; in the series on biotinyl-Leu-oxazolone, 37.9; in the series with biotinyl-Ile-oxazolone, 19.6.
With “AUUCCCCUAGGUCUUCGGGUG [Fam2.2 aminoacylation ribozyme variant]”, the self-aminoacylation in the series on biotinyl-Val-oxazolone worked out at 13.9; in the series on biotinyl-Trp-oxazolone it was 21.8; with biotinyl-Phe-oxazolone it was 127; in the series with biotinyl-Met-oxazolone, 19.3; in the series on biotinyl-Leu-oxazolone, 26.7; in the series on biotinyl-Ile-oxazolone it was 13.7.
For “AUUCCCCUCGUCAUCGAGUGA [Fam2.1 aminoacylation ribozyme variant]”, the self-aminoacylation in the series on biotinyl-Val-oxazolone amounted to 3.46; in the series with biotinyl-Trp-oxazolone, 5.17; with biotinyl-Phe-oxazolone it was 15.8; in the series with biotinyl-Met-oxazolone, 4.49; in the series on biotinyl-Leu-oxazolone, 4.4; in the series with biotinyl-Ile-oxazolone, 3.49.
In the case of “AUUCCCCUGGCCAUCGAGUGA [Fam2.1 aminoacylation ribozyme variant]”, the self-aminoacylation in the series with biotinyl-Val-oxazolone stood at 4.87; in the series with biotinyl-Trp-oxazolone it was 6.48; with biotinyl-Phe-oxazolone it was 46.6; in the series on biotinyl-Met-oxazolone, 6.17; in the series with biotinyl-Leu-oxazolone, 8.45; with biotinyl-Ile-oxazolone, 3.34.
“AUUCCCCUGGGCAUCGAGUGA [Fam2.1 aminoacylation ribozyme variant]”: the self-aminoacylation was 5.1 in the series with biotinyl-Val-oxazolone; 11.6 in the series with biotinyl-Trp-oxazolone; 65.9 in the series on biotinyl-Phe-oxazolone; 10.8 in the series with biotinyl-Met-oxazolone; 11.1 with biotinyl-Leu-oxazolone; 5.22 in the series with biotinyl-Ile-oxazolone.
For “AUUCCCCUGGUCACCGAGUGA [Fam2.1 aminoacylation ribozyme variant]”, the self-aminoacylation worked out at 5.07 in the series with biotinyl-Val-oxazolone; 12.6 in the series with biotinyl-Trp-oxazolone; 73.1 in the series with biotinyl-Phe-oxazolone; 9.9 with biotinyl-Met-oxazolone; 11.1 in the series with biotinyl-Leu-oxazolone; 5.93 in the series on biotinyl-Ile-oxazolone.
Consider “AUUCCCCUGGUCAUAGAGUGA [Fam2.1 aminoacylation ribozyme variant]”, for which the self-aminoacylation was found to be 5.89 in the series on biotinyl-Val-oxazolone; 13.1 in the series with biotinyl-Trp-oxazolone; 70.9 in the series with biotinyl-Phe-oxazolone; 10 in the series with biotinyl-Met-oxazolone; 10.1 in the series with biotinyl-Leu-oxazolone; 5.4 in the series on biotinyl-Ile-oxazolone.
With “AUUCCCCUGGUCAUCGAGCGA [Fam2.1 aminoacylation ribozyme variant]”, the self-aminoacylation turned out to be 2.17 in the series with biotinyl-Val-oxazolone; 1.53 with biotinyl-Trp-oxazolone; 8.04 with biotinyl-Phe-oxazolone; 2.63 with biotinyl-Met-oxazolone; 2.75 with biotinyl-Leu-oxazolone; 2.14 in the series with biotinyl-Ile-oxazolone.
Turning to “AUUCCCCUGGUCAUCGAGUUA [Fam2.1 aminoacylation ribozyme variant]”, the self-aminoacylation in the series on biotinyl-Val-oxazolone is 1.36; in the series with biotinyl-Trp-oxazolone, 1.08; with biotinyl-Phe-oxazolone, 1.25; in the series with biotinyl-Met-oxazolone, 1.09; with biotinyl-Leu-oxazolone, 1.19; with biotinyl-Ile-oxazolone, 1.33.
On to “AUUCCCCUGGUCAUCUAGUGA [Fam2.1 aminoacylation ribozyme variant]”, for which the self-aminoacylation in the series on biotinyl-Val-oxazolone came to 6.23; in the series on biotinyl-Trp-oxazolone, 13; in the series on biotinyl-Phe-oxazolone, 85.5; with biotinyl-Met-oxazolone it was 11.9; in the series with biotinyl-Leu-oxazolone it was 11.4; in the series with biotinyl-Ile-oxazolone, 5.92.
For the sequence “AUUCCCCUGGUCAUGGAGUGA [Fam2.1 aminoacylation ribozyme variant]”, the self-aminoacylation with biotinyl-Val-oxazolone came out at 3.12; with biotinyl-Trp-oxazolone, 4.27; in the series with biotinyl-Phe-oxazolone, 16.3; with biotinyl-Met-oxazolone it was 3.85; with biotinyl-Leu-oxazolone it was 3.99; with biotinyl-Ile-oxazolone, 2.92.
Regarding “AUUCCCCUUGGUCAUCGGGUG [Fam2.2 aminoacylation ribozyme variant]”, the self-aminoacylation in the series with biotinyl-Val-oxazolone was 13.7; in the series on biotinyl-Trp-oxazolone, 18.9; in the series with biotinyl-Phe-oxazolone it was 165; in the series with biotinyl-Met-oxazolone, 20.4; in the series with biotinyl-Leu-oxazolone, 27.4; with biotinyl-Ile-oxazolone, 13.4.
Regarding “AUUCCCGUGGUCAUCGAGUGA [Fam2.1 aminoacylation ribozyme variant]”, the self-aminoacylation is 5.81 in the series on biotinyl-Val-oxazolone; 11.3 with biotinyl-Trp-oxazolone; 63.3 with biotinyl-Phe-oxazolone; 8.45 in the series on biotinyl-Met-oxazolone; 9.05 with biotinyl-Leu-oxazolone; 5.17 in the series on biotinyl-Ile-oxazolone.
For “AUUCCUCUAGGUCAUCGGGUG [Fam2.2 aminoacylation ribozyme variant]”, the self-aminoacylation in the series with biotinyl-Val-oxazolone amounted to 10.5; in the series on biotinyl-Trp-oxazolone, 16.1; in the series with biotinyl-Phe-oxazolone, 154; with biotinyl-Met-oxazolone it was 16.6; in the series with biotinyl-Leu-oxazolone, 23.7; in the series on biotinyl-Ile-oxazolone it was 10.4.
In the case of “AUUCCUCUGGUCAUCGAGUGA [Fam2.1 aminoacylation ribozyme variant]”, the self-aminoacylation in the series on biotinyl-Val-oxazolone worked out at 4.02; in the series on biotinyl-Trp-oxazolone, 7.73; in the series on biotinyl-Phe-oxazolone, 31.6; with biotinyl-Met-oxazolone, 6.73; in the series with biotinyl-Leu-oxazolone it was 6.46; with biotinyl-Ile-oxazolone it was 3.75.
As to “AUUCGCCUAGAUCAUCGGGUG [Fam2.2 aminoacylation ribozyme variant]”, the self-aminoacylation was 2.27 in the series with biotinyl-Val-oxazolone; 3.12 in the series with biotinyl-Trp-oxazolone; 19.1 in the series on biotinyl-Phe-oxazolone; 2.69 with biotinyl-Met-oxazolone; 4.04 with biotinyl-Leu-oxazolone; 2.08 with biotinyl-Ile-oxazolone.
“AUUCGCCUAGGUCAUCGGAUG [Fam2.2 aminoacylation ribozyme variant]”: the self-aminoacylation stood at 1.07 in the series with biotinyl-Val-oxazolone; 0.704 in the series with biotinyl-Trp-oxazolone; 0.493 in the series on biotinyl-Phe-oxazolone; 0.94 with biotinyl-Met-oxazolone; 0.903 with biotinyl-Leu-oxazolone; 0.941 in the series on biotinyl-Ile-oxazolone.
For the sequence “AUUCGCCUAGGUCAUCGGGAG [Fam2.2 aminoacylation ribozyme variant]”, the self-aminoacylation in the series with biotinyl-Val-oxazolone is 1.54; in the series with biotinyl-Trp-oxazolone, 0.98; in the series with biotinyl-Phe-oxazolone, 2.55; in the series on biotinyl-Met-oxazolone, 1.51; with biotinyl-Leu-oxazolone it was 1.87; in the series with biotinyl-Ile-oxazolone it was 1.29.
For the sequence “AUUCUCCAAGGUCAUCGGGUG [Fam2.2 aminoacylation ribozyme variant]”, the self-aminoacylation in the series with biotinyl-Val-oxazolone worked out at 7.99; in the series on biotinyl-Trp-oxazolone, 10.7; with biotinyl-Phe-oxazolone, 102; in the series on biotinyl-Met-oxazolone, 11.8; in the series with biotinyl-Leu-oxazolone it was 15.6; in the series with biotinyl-Ile-oxazolone, 6.8.
For “AUUCUCCUAGGUAAUCGGGUG [Fam2.2 aminoacylation ribozyme variant]”, the self-aminoacylation in the series with biotinyl-Val-oxazolone came out at 2.45; in the series with biotinyl-Trp-oxazolone it was 4.29; with biotinyl-Phe-oxazolone it was 33.1; with biotinyl-Met-oxazolone, 4.1; in the series with biotinyl-Leu-oxazolone, 6.03; in the series with biotinyl-Ile-oxazolone it was 2.55.
For the sequence “AUUCUCCUAGGUCACCGGGUG [Fam2.2 aminoacylation ribozyme variant]”, the self-aminoacylation in the series on biotinyl-Val-oxazolone is 5.85; in the series on biotinyl-Trp-oxazolone it was 7.7; in the series on biotinyl-Phe-oxazolone, 39.8; in the series with biotinyl-Met-oxazolone, 7.25; with biotinyl-Leu-oxazolone, 10.2; in the series on biotinyl-Ile-oxazolone, 5.47.
Turning to “AUUCUCCUAGGUCAUCAGGUG [Fam2.2 aminoacylation ribozyme variant]”, the self-aminoacylation in the series on biotinyl-Val-oxazolone was determined as 2.3; in the series with biotinyl-Trp-oxazolone, 2.38; in the series with biotinyl-Phe-oxazolone, 6.58; with biotinyl-Met-oxazolone, 2.62; in the series on biotinyl-Leu-oxazolone it was 2.71; with biotinyl-Ile-oxazolone, 2.12.
With “AUUCUCCUAGGUCAUCGCGUG [Fam2.2 aminoacylation ribozyme variant]”, the self-aminoacylation with biotinyl-Val-oxazolone was determined as 12.2; in the series with biotinyl-Trp-oxazolone, 20.6; with biotinyl-Phe-oxazolone it was 170; in the series on biotinyl-Met-oxazolone, 20.9; in the series with biotinyl-Leu-oxazolone, 27.3; in the series on biotinyl-Ile-oxazolone it was 11.4.
